The values that follow come from patent US20110189183A1.

Positions count from the first letter of the chain named.

Assay [1] addresses Candida albicans (Cat. No. 10231, ATCC) whole cells (Candida albicans). The assay can be described thus: colorimetric ELISA on C. albicans cells, [50% Max]. (An ELISA detects its analyte on a solid surface through an enzyme-linked reagent.)
Assay [2] has the same target. The assay can be described thus: colorimetric ELISA on C. albicans cells.
Assay [3] has as its target Candida krusei clinical isolate, whole cells (Candida krusei). The assay can be described thus: FACS, IgG on fixed cells. In general terms: Flow cytometry measures light scatter and fluorescence of single cells or particles in a stream.
The target of assay [4] is Candida albicans (Cat. No. 10231, ATCC) whole cells (Candida albicans). The assay can be described thus: FACS, IgG on fixed cells.
For assay [5] the target is unchanged. The assay can be described thus: FACS, IgG on fixed C. albicans cells, concentration at 50% maximum binding.
Assay [6] concerns the target Candida tropicalis clinical isolate, whole cells (Candida tropicalis). The assay can be described thus: FACS, IgG on fixed cells.
In assay [7] the target is Candida glabrata clinical isolate, whole cells (Candida glabrata). The assay can be described thus: FACS, IgG on fixed cells.
The target of assay [8] is Candida albicans (Cat. No. 10231, ATCC) whole cells (Candida albicans). The assay can be described thus: luminescent ELISA on C. albicans cells.
Assay [9] has the same target. The assay can be described thus: FACS, IgG on fixed C. albicans cells; end tied to 1H12 by Table 23.
For assay [10] the target is unchanged. The assay can be described thus: FACS, IgG on fixed C. albicans cells; end tied to 1F8 by Table 23.

B1: 2G12 Polymun (Cat. No. AB002, Polymun Scientific) (antibody, V domains shown)
VH: EVQLVESGGGLVKAGGSLILSCGVSNFRISAHTMNWVRRVPGGGLEWVASISTSSTYRDYADAVKGRFTVSRDDLEDFVYLQMHKMRVEDTAIYYCARKGSDRLSDNDPFDAWGPGTVVTVSP
VL: DVVMTQSPSTLSASVGDTITITCRASQSIETWLAWYQQKPGKAPKLLIYKASTLKTGVPSRFSGSGSGTEFTLTISGLQFDDFATYHCQHYAGYSATFGQGTRVEIKR
For the molecule B1, the half-maximal effective concentration (EC50) (usually the concentration giving half of the maximal effect) in assay [1] was 76.3 nM; in assay [2], 500 nM; in [5] it was 500 nM. In addition, the affinity was 1000 nM in assay [3] and 500 nM in assay [4].

B2: P1F9 IgG (antibody, V domains shown)
VH: B1 VH
VL: GVVMTQSPSTLSASVGDTITITCRASQSIETWLAWYQQKPGKAPKLLIYKASTLKTGVPSRFSGSGSGTEFTLTISGLQFDDFATYHCQHYRAHTGATFGQGTRVEIKR
For B2, the values for the EC50 in [2] and in [8] were 3.2 nM and 19 nM, respectively. Moreover, the affinity in assay [6] was found to be 51 nM; in assay [7], 102 nM; in assay [3], 27 nM; in assay [4], 23 nM.

B3: P4H12 IgG (antibody, V domains shown)
VH: B1 VH
VL: B2 VL with R92T, T95R
For the molecule B3, the affinity in assay [6] was 21 nM.

B4: 1H12 IgG (antibody, V domains shown)
VH: B1 VH
VL: B1 VL with D1G, A92M, G93P, S95R, T97S
As to B4, the EC50 in [1] was 0.4 nM; in [2], 0.82 nM; in assay [5] it was 5.2 nM; in assay [8], 6.1 nM. Further, the fold increased binding affinity against wildtype 2G12 in assay [9] was 30 fold. Besides, the affinity in assay [6] was 23 nM; in assay [7] it was 12 nM; in assay [3], 17 nM; in assay [4], 10 nM.

B5: 2G12 IgG (wildtype, made in house) (antibody, V domains shown)
VH: B1 VH
VL: B1 VL
For B5, the EC50 is 9.7 nM in assay [1] and 150 nM in [5]. In assay [2], this molecule had a fold higher affinity than 2G12 Polymun of 8 fold.

B6: A5G10 IgG (antibody, V domains shown)
VH: B1 VH
VL: B2 VL with A93P
For the molecule B6, the affinity in assay [7] stood at 72 nM; in assay [3], 50 nM; in assay [4], 50 nM.

B7: 1F8 IgG (antibody, V domains shown)
VH: B1 VH
VL: B1 VL with D1G, A92L, G93P, Y94F, S95N
B7 displayed a fold increased binding affinity against wildtype 2G12 in assay [10] of 10 fold. Besides, the results for the EC50 in assay [1] and in assay [5] were 0.9 nM and 15.1 nM, respectively.
